“And” between values parts separate entries of the source, which are not always exact repeats. Equal values may be shown once.
How the values were obtained:
[1] = molecular target: wildtype hamster BiP, N-terminally hexahistidine-tagged (hamster) (UniProt G3I8R9); test: SEC-MALS; wildtype BiP 90 µM, Superdex 200 Increase 10/300 in HKM, room temperature
[2] = molecular target: wildtype hamster BiP, N-terminally hexahistidine-tagged (hamster) (UniProt G3I8R9); test: native gel or EMSA; purified BiP diluted to a series of concentrations, equilibrated 48 hr at room temperature, native-PAGE immunoblot; share of species II and III against concentration; crude estimate

Sequence of wildtype hamster BiP, N-terminally hexahistidine-tagged, G3I8R9 19-654 (natural protein; other documents disagree on this pair) (G3I8R9 19-654): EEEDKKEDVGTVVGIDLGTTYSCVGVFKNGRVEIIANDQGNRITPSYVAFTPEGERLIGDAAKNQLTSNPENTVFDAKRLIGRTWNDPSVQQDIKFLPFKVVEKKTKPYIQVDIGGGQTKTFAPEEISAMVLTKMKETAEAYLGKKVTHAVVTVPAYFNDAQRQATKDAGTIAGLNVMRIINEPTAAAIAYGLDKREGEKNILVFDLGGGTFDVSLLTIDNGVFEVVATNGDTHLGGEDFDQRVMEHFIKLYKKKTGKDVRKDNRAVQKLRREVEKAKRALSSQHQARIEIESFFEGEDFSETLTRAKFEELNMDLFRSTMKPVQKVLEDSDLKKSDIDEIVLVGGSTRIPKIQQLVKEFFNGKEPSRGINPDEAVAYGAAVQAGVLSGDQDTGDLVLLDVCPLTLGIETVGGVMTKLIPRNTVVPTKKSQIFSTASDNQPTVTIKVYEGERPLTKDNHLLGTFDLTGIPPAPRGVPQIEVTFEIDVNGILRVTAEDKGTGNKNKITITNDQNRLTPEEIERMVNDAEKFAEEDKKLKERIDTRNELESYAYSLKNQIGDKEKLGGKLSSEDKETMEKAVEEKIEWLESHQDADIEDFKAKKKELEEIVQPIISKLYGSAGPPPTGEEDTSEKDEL

stoichiometry N [1]: 2 and 3 | K (1/2max)^II (concentration of BiP at which half of species II dissociated) [2]: 0.45 µM | K (1/2max)^III (concentration of BiP at which half of species III dissociated) [2]: 0.74 µM
Substance: wildtype hamster BiP, N-terminally hexahistidine-tagged, G3I8R9 19-654 (natural protein; other documents disagree on this pair)

Reference: publication PMC4608358
